Experimental data published in PMC12583548.

Experiments:
[1] = molecular target: HAstV1 capsid spike domain mutant K467A, 10x histidine-tagged (human astrovirus 1 (HAstV1)) (UniProt O12792); assay: SEC; Superdex 200 Increase 10/300 GL, HAstV1 spike mutants alone
[2] = molecular target: HAstV1 capsid spike domain mutant K467A, 10x histidine-tagged (human astrovirus 1 (HAstV1)) (UniProt O12792); assay: SEC; Superdex 200 Increase 10/300 GL; traces of the HAstV1 spike mutants overlayed with BioRad gel filtration standards
[3] = molecular target: HAstV1 capsid spike domain mutant K467H, Avitag-biotinylated (human astrovirus 1 (HAstV1)) (UniProt O12792); assay: as above
[4] = molecular target: HAstV1 capsid spike domain mutant K514A, 10x histidine-tagged (human astrovirus 1 (HAstV1)) (UniProt O12792); assay: SEC; Superdex 200 Increase 10/300 GL, HAstV1 spike mutants alone
[5] = molecular target: HAstV1 capsid spike domain mutant K514A, 10x histidine-tagged (human astrovirus 1 (HAstV1)) (UniProt O12792); assay: SEC; Superdex 200 Increase 10/300 GL; traces of the HAstV1 spike mutants overlayed with BioRad gel filtration standards
[6] = molecular target: HAstV1 capsid spike domain mutant Y475A, 10x histidine-tagged (human astrovirus 1 (HAstV1)) (UniProt O12792); assay: SEC; Superdex 200 Increase 10/300 GL, HAstV1 spike mutants alone
[7] = molecular target: HAstV1 capsid spike domain mutant Y475A, 10x histidine-tagged (human astrovirus 1 (HAstV1)) (UniProt O12792); assay: SEC; Superdex 200 Increase 10/300 GL; traces of the HAstV1 spike mutants overlayed with BioRad gel filtration standards
[8] = molecular target: HAstV1 capsid spike domain triple mutant 3A (K467A, Y475A, K514A), 10x histidine-tagged (human astrovirus 1 (HAstV1)) (UniProt O12792); assay: SEC; Superdex 200 Increase 10/300 GL, HAstV1 spike mutants alone
[9] = molecular target: HAstV1 capsid spike domain triple mutant 3A (K467A, Y475A, K514A), 10x histidine-tagged (human astrovirus 1 (HAstV1)) (UniProt O12792); assay: SEC; Superdex 200 Increase 10/300 GL; traces of the HAstV1 spike mutants overlayed with BioRad gel filtration standards
[10] = molecular target: HAstV1 capsid spike domain, Avitag-biotinylated (human astrovirus 1 (HAstV1)) (UniProt O12792); assay: BLI; streptavidin biosensor loaded with biotinylated HAstV1 spike; wild-type or mutant FcRn in solution (500-31.25 nM series; T149N_G151T_D153E at 2000 and 1000 nM); pH 7.0 (0.1 M sodium phosphate, 150 mM NaCl, 0.05% Tween-20), 25 °C; 1:1 model; triplicate
[11] = molecular target: HAstV1 capsid spike domain mutant K467H, Avitag-biotinylated (human astrovirus 1 (HAstV1)) (UniProt O12792); assay: BLI; streptavidin biosensors loaded with biotinylated HAstV1 K467H spike, dipped into FcRn (2000 nM); pH 7.0 (0.1 M sodium phosphate, 150 mM NaCl, 0.05% Tween-20), 25 °C; 1:1 model; average of three replicates
[12] = molecular target: HAstV1 capsid spike domain mutant K467H, Avitag-biotinylated (human astrovirus 1 (HAstV1)) (UniProt O12792); assay: BLI; streptavidin biosensors loaded with biotinylated HAstV1 K467H spike, dipped into FcRn (1000, 500, 250 nM); pH 5.0 (0.1 M sodium acetate, 150 mM NaCl, 0.05% Tween-20), 25 °C; 1:1 model; average of three replicates
[13] = molecular target: HAstV1 capsid spike domain, Avitag-biotinylated (human astrovirus 1 (HAstV1)) (UniProt O12792); assay: BLI; biosensors loaded with biotinylated HAstV1 spike (streptavidin, as in Fig. 1a); human or mouse FcRn in solution, 500, 250, 125, 62.5 nM; pH 7.0 (0.1 M sodium phosphate, 150 mM NaCl, 0.05% Tween-20), 25 °C; 1:1 model; average of three replicates
[14] = molecular target: HAstV1 capsid spike domain mutant K514A, 10x histidine-tagged (human astrovirus 1 (HAstV1)) (UniProt O12792); assay: BLI; HIS1K biosensors loaded with 10x histidine-tagged spike, FcRn in solution at 1000, 500, 250, 125 and 62.5 nM; pH 7.0 buffer, 25 °C; 1:1 model
[15] = molecular target: HAstV2 capsid spike domain, 10x histidine-tagged (human astrovirus 2 (HAstV2)); assay: as above
[16] = molecular target: HAstV4 capsid spike domain, 10x histidine-tagged (human astrovirus 4 (HAstV4)); assay: as above
[17] = molecular target: HAstV5 capsid spike domain, 10x histidine-tagged (human astrovirus 5 (HAstV5)); assay: as above
[18] = molecular target: HAstV6 capsid spike domain, 10x histidine-tagged (human astrovirus 6 (HAstV6)); assay: as above
[19] = molecular target: HAstV1 capsid spike domain mutant K467A, 10x histidine-tagged (human astrovirus 1 (HAstV1)) (UniProt O12792); assay: BLI; HIS1K biosensors loaded with histidine-tagged spike, FcRn in solution at a single concentration of 2000 nM, kinetics estimated from that one concentration; pH 7.0 buffer, 25 °C; 1:1 model
[20] = molecular target: HAstV1 capsid spike domain mutant Y475A, 10x histidine-tagged (human astrovirus 1 (HAstV1)) (UniProt O12792); assay: as above
[21] = molecular target: HAstV3 capsid spike domain, 10x histidine-tagged (human astrovirus 3 (HAstV3)); assay: as above
[22] = molecular target: HAstV7 capsid spike domain, 10x histidine-tagged (human astrovirus 7 (HAstV7)); assay: as above
[23] = molecular target: HAstV1 capsid spike domain mutant K467H, Avitag-biotinylated (human astrovirus 1 (HAstV1)) (UniProt O12792); assay: BLI; streptavidin biosensors loaded with Avitag-biotinylated spike, FcRn in solution (500-62.5 nM for the wild type); pH 7.0 (0.1 M sodium phosphate, 150 mM NaCl, 0.05% Tween-20), 25 °C; 1:1 model

Substance: HAstV1 capsid spike domain mutant K467A, 10x histidine-tagged (from UniProt O12792 433-645) (domain or fragment)
- stoichiometry N [1]: 2
- stoichiometry N [2]: 2

Substance: HAstV1 capsid spike domain mutant K467H, Avitag-biotinylated (from UniProt O12792 433-645) (domain or fragment)
- stoichiometry N [3]: 2

Substance: HAstV1 capsid spike domain mutant K514A, 10x histidine-tagged (from UniProt O12792 433-645) (domain or fragment)
- stoichiometry N [4]: 2
- stoichiometry N [5]: 2

Substance: HAstV1 capsid spike domain mutant Y475A, 10x histidine-tagged (from UniProt O12792 433-645) (domain or fragment)
- stoichiometry N [6]: 2
- stoichiometry N [7]: 2

Substance: HAstV1 capsid spike domain triple mutant 3 A (K467A, Y475A, K514A), 10x histidine-tagged (from UniProt O12792 433-645) (domain or fragment)
- stoichiometry N [8]: 2

Substance: HAstV1 capsid spike domain triple mutant 3A (K467A, Y475A, K514A), 10x histidine-tagged (from UniProt O12792 433-645) (domain or fragment)
- stoichiometry N [9]: 2

Substance: human FcRn mutant D153E (ectodomain heterodimer with β2 microglobulin) (from UniProt P55899 24-297; P61769 21-119) (receptor)
- koff [10]: 0.14 s⁻¹
- kon [10]: 85000 M⁻¹ s⁻¹

Substance: human FcRn mutant T149N_G151T (ectodomain heterodimer with β2 microglobulin) (from UniProt P55899 24-297; P61769 21-119) (receptor)
- koff [10]: 0.034 s⁻¹
- kon [10]: 74000 M⁻¹ s⁻¹

Substance: human FcRn mutant T149N_G151T_D153E (ectodomain heterodimer with β2 microglobulin) (from UniProt P55899 24-297; P61769 21-119) (receptor)
- Kd [10]: 11.9 µM
- koff [10]: 0.37 s⁻¹
- kon [10]: 31000 M⁻¹ s⁻¹

Substance: human neonatal Fc receptor (FcRn), wild-type ectodomain heterodimer of αFcRn and β2 microglobulin (from UniProt P55899 24-297; P61769 21-119)
- koff [11]: 0.24 s⁻¹
- kon [11]: 11000 M⁻¹ s⁻¹
- koff [12]: 0.051 s⁻¹
- kon [12]: 66000 M⁻¹ s⁻¹
- koff [13]: 0.018 s⁻¹
- kon [13]: 94000 M⁻¹ s⁻¹
- koff [10]: 0.0223 s⁻¹
- kon [10]: 93000 M⁻¹ s⁻¹

Substance: neonatal Fc receptor (FcRn), recombinant human ectodomain heterodimer of FcRn α-chain and β2 microglobulin, with tags (from UniProt P55899;P61769)
- Kd [14]: 2.5 µM
- koff [14]: 0.056 s⁻¹
- koff [15]: 0.048 s⁻¹
- Kd [16]: 0.23 µM
- Kd [17]: 0.152 µM
- koff [17]: 0.006 s⁻¹
- koff [18]: 0.015 s⁻¹
- Kd [19]: 15 µM
- koff [19]: 0.284 s⁻¹
- Kd [20]: 8 µM
- koff [20]: 0.22 s⁻¹
- Kd [21]: 181 µM
- koff [21]: 0.099 s⁻¹
- Kd [22]: 10.3 µM
- koff [22]: 0.013 s⁻¹
- Kd [23]: 22.5 µM
